Results as given in patent US20230074134A1, “METHOD FOR PREPARING SOY LEGHEMOGLOBIN USING ESCHERICHIA COLI” (iNtRON Biotechnology, Inc., priority 2020, published 2023).

System: iron-deficiency-anemia-induced animals
Format: in vivo, Sprague-Dawley rats (female)
Procedure: The composition containing soy leghemoglobin prepared according to the present invention was administered to iron-deficiency-anemia-induced animals, whereby the effectiveness of the composition containing soy leghemoglobin on alleviating anemia was evaluated. Specifically, after 2 weeks acclimation period, thirty 9-week old Sprague-Dawley rats (female) were divided into 3 groups of 10 rats per group, among which one group was fed with normal feed in an amount of 10% of body weight daily for one month (Group 1; control), and the remaining two groups were fed with iron-deficient feed in an amount of 10% of body weight daily for 6 weeks to induce iron-deficiency anemia (Group 2 and Group 3). After 6 weeks of feeding, it was confirmed that iron-deficiency anemia was induced in the individual rat belonging to Group 2 and Group 3. Then, one of the anemia-induced groups was orally administered once a day with saline alone (Group 2), and the other anemia-induced group was orally administered once a day with solution containing soy leghemoglobin (0.1 mg Fe/500 μl solution, Group 3). The administration continued for 5 weeks. During 5 weeks of administration to Group 2 and Group 3, Group 1 was continuously fed with normal feed, and Group 2 and Group 3 were fed with iron-deficient feed. […] After 5 weeks of administration, blood was collected, and whether anemia was alleviated was evaluated.

[1] = iron-deficient feed, oral once a day, 0.1 mg Fe/500 μl solution, 5 weeks, blood collected after 5 weeks

B1: soy leghemoglobin (protein)
chain: MGAFTEKQEALVSSSFEAFKANIPQYSVVFYTSILEKAPAAKDLFSFLSNGVDPSNPKLTGHAEKLFGLVRDSAGQLKANGTVVADAALGSIHAQKAITDPQFVVVKEALLKTIKEAVGDKWSDELSSAWEVAYDELAAAIKKAF
modifications: heme cofactor; Soy leghmoglobin
- Alleviation of iron-deficiency anemia (conclusion) (anemia-induced rats, 5 weeks oral administration): effective at alleviating iron-deficiency anemia
- Weight of rats on 5 weeks after administration (iron-deficient feed, oral once a day, 0.1 mg Fe/500 μl solution, 5 weeks, anemia-induced female Sprague-Dawley rats): 369.3 ± 1.1 g
- Blood test Hematocrit [1]: 31.8 ± 1.9%
- Blood test Hemoglobin content [1]: 14.2 ± 0.4 g/dL
